Measured values reported in publication PMC4614383, “Structural insights into the cooperative remodeling of membranes by amphiphysin/BIN1” (Scientific Reports, 2015).

Molecular target: the molecule itself
Assay: cryo-EM 2D class averages and power spectra; 2D classification (Relion) of segments of tubes remodeled by N-BAR, N-BAR-deltaH0 or FL; liposomes 2POPG:1POPE; periodic spacings read from the power spectra; BAR dimers to a lattice on the membrane

B1: full length Drosophila amphiphysin/BIN1 (FL, residues 1-602) (natural protein, UniProt Q7KLE5 1-602, looked up)
chain: MTENKGIMLAKSVQKHAGRAKEKILQNLGKVDRTADEIFDDHLNNFNRQQASANRLQKEFNNYIRCVRAAQAASKTLMDSVCEIYEPQWSGYDALQAQTGASESLWADFAHKLGDQVLIPLNTYTGQFPEMKKKVEKRNRKLIDYDGQRHSFQNLQANANKRKDDVKLTKGREQLEEARRTYEILNTELHDELPALYDSRILFLVTNLQTLFATEQVFHNETAKIYSELEAIVDKLATESQRGSNTLRKQTSNPIKTSSPVQSPVNKLNNANINSNYQNQITTNGGSSLANSPTSTSSSLQEPRFDSVSSTPEPRPESPAAALVSATPSSPVENGVTTKSLERPELSGLNASAKATTTTQTSPTEDKAVVSEAVKPSETEGAAVAASVTPAPPATPAQINGNNNEPSIVKEGGKQPKELPSTTSNAEAAAEAAANNGNSIEEHKQKKLGNDTTVTATETVTVTQHSVTSTDTDNIVTISDTNTDTDTKTSTGTSQKGRPVPVVNRHSVNNLNKNPFEDDDERIYEVPADANTADLPPGVLYRVKATYGYAKEDVDELSFEIGDLIRVIEYDDPEDQEEGWLMGQKEGTNEKGLFPANFTRPI
notes: amphiphysin/BIN1, Drosophila, full length, residues 1-602; Cloned either with a 3C-cleavable hexahistidine tag or a SenP2-cleavable sumo-hexahistidine tag; source: E. coli BL21 gold, purified (His-Trap, anion exchange, SEC)
B1: binds.
